Measured values: patent US20260008856A1, “METHODS OF TREATING DISEASE USING ANTI-IL1RAP ANTIBODIES AND ANTIBODY DRUG CONJUGATES” (Bluefin Biomedicine, Inc., priority 2022, published 2026)

Test system: TARC level in PBMCs stimulated with HDM and IL-13
Assay: TARC level in PBMCs treated by HDM and IL-13
Type: cell-based, human
Details: HDM 10 ug/ml, IL-13 0.5 nM; tralokinumab 10 to 0.16 ug/ml; BFB759 1 ug/ml in combination
Procedure: 0.2 million PBMCs in 100 ul medium (RPMI1640, 10% heat-inactivated FBS) were added to each well of 96 well cell culture plate. BFB759 at multiple concentrations in 50 ul medium was added to the wells. The cells were incubated in the incubator for 45 min. Then, 50 ul HDM solution (final concentration 10 ug/ml) was added to the wells. After 7 days incubation, the supernatant was transferred to a new 96 well plate, and used in TARC ELISA right away, or frozen in −80 C freezer for ELISA later. For the combination studies of BFB759 with other drugs, the single agent or combination of drugs were added to the PBMCs, incubated for 45 min, then HDM solution, or HDM and IL-4 or IL-13 solution were added to the wells. The assay was incubated for 7 days, and the supernatant was harvested for TARC ELISA.
In the data shown in FIG. 16, HDM was used at 10 ug/ml, IL-13 was used at 0.5 nM, BFB759 was used at 1 ug/ml, tralokinumab was titrated from 10 ug/ml to 0.16 ug/ml (4 fold dilution, 4 series). Data shown are mean±s.d.

B1: tralokinumab: IL-13 neutralizing antibody, produced by Bluefin Biomedicine according to the published protein sequence (antibody, chains of the INN, looked up, V domains shown)
VH: QVQLVQSGAEVKKPGASVKVSCKASGYTFTNYGLSWVRQAPGQGLEWMGWISANNGDTNYGQEFQGRVTMTTDTSTSTAYMELRSLRSDDTAVYYCARDSSSSWARWFFDLWGRGTLVTVSS
VL: SYVLTQPPSVSVAPGKTARITCGGNIIGSKLVHWYQQKPGQAPVLVIYDDGDRPSGIPERFSGSNSGNTATLTISRVEAGDEADYYCQVWDTGSDPVVFGGGTKLTVL
How did the “inhibition of TARC level in HDM and IL-13 stimulated cells” value turn out when B1 was run?
The value was “dose dependent inhibition”.
